Consider one substance from publication PMC4555817.

The test concerns the target GST-tagged full-length cortactin (UniProt Q60598). In words: pull-down.

pKi: −log10 of the molar value.

UniProt Q60598, sequence (Q60598 whole entry): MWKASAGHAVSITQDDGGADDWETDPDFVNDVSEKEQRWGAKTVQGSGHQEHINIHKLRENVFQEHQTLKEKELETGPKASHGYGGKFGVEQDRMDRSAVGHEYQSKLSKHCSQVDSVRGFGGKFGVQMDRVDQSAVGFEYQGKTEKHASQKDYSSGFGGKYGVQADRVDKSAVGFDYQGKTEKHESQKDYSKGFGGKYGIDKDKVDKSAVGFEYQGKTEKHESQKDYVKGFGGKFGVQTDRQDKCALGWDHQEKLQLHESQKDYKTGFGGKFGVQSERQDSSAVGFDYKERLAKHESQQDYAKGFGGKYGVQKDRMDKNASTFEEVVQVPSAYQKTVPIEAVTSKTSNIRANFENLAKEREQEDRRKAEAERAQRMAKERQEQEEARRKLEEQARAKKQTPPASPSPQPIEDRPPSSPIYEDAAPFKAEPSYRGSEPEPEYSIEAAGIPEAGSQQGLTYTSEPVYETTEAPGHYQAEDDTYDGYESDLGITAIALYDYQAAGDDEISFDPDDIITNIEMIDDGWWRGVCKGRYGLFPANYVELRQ

For orientation: pKi means the negative decadic logarithm of the Ki, by convention in mol/L. Read a high pKi as a low Ki. For “actin filaments (from UniProt P68139 1-377) (natural protein)”, the pKi is 6.34.
